Two variants from FireProtDB (doi:10.1002/pro.343) can be followed below.

B1: Multidrug resistance operon repressor, P52003 (parent)
chain: MNYPVNPDLMPALMAVFQHVRTRIQSELDCQRLDLTPPDVHVLKLIDEQRGLNLQDLGRQMCRDKALITRKIRELEGRNLVRRERNPSDQRSFQLFLTDEGLAIHQHAEAIMSRVHDELFAPLTPVEQATLVHLLDQCLAAQPLEDI

One data set covers variants of B1. As to conditions: Pseudomonas aeruginosa (strain ATCC 15692 / DSM 22644 / CIP 104116 / JCM 14847 / LMG 12228 / 1C / PRS 101 / PAO1); pH 7.2; Thermal; CD; Sodium phosphate 10 mM; structure 1LNW; whole UniProt chain shown.
L13M: the midpoint of thermal melting (Tm) was 47.8 °C.

Still in this data set, the particulars now being: Pseudomonas aeruginosa (strain ATCC 15692 / DSM 22644 / CIP 104116 / JCM 14847 / LMG 12228 / 1C / PRS 101 / PAO1); pH 7.2; 22 °C; GdnHCl; CD; Sodium phosphate 10 mM; transition: 3; structure 1LNW; whole UniProt chain shown.
On to R21W, for which the “denaturant midpoint (higher = more stable)” value turned out to be 2.6 M.

The Tm is the temperature at the midpoint of the melting transition.
